# Article PMC3003327 (The Journal of Cell Biology, 2010)
# Target: the molecule itself
# Assay: AUC
protein,measurement,value
"human VASP^1-380aa, unlabeled wild type (untagged hVASP^1-380aa) (natural protein) GSMSETVICSSRATVMLYDDGNKRWLPAGTGPQAFSRVQIYHNPTANSFRVVGRKMQPDQQVVINCAIVRGVKYNQATPNFHQWRDARQVWGLNFGSKEDAAQFAAGMASALEALEGGGPPPPPALPTWSVPNGPSPEEVEQQKRQQPGPSEHIERRVSNAGGPPAPPAGGPPPPPGPPPPPGPPPPPGLPPSGVPAAAHGAGGGPPPAPPLPAAQGPGGGGAGAPGLAAAIAGAKLRKVSKQEEASGGPTAPKAESGRSGGGGLMEEMNAMLARRRKATQVGEKTPKDESANQEEPEARVPAQSESVRRPWEKNSTTLPRMKSSSSVTTSETQPCTPSSSDYSDLQRVKQELLEEVKKELQKVKEEIIEAFVQELRKRGSP",stoichiometry N,4
